Values of other authors in patent US7625865B2, “Insulin highly respirable microparticles” (Universita Degli Studi Di Parma, priority 2004, dated 2009).

Experiments:
[1] = nebulization versus direct instillation of an acidic insulin solution
[2] = rats
[3] = intratracheal instillation

insulin
absorbed fraction, aerosolized insulin versus instilled insulin [1]: 10 fold
absorption of insulin [2]: rapid absorption
bioavailability of formulation at pH 3 versus pH 7 [3]: greater bioavalability
